From paper PMC2964344

Conditions: methylation at K27

With “histone H3: ATXR6 Y243N (SET-domain catalytic mutant) expressed in atxr5 atxr6” the other was “changes”.
